Measured values published in US20200087367A1 (ACCELERON PHARMA, published 2020).

Tests used:
BMP5 = target: T1, BMP5 (human, UniProt P22003 317-454, limits assumed); test: SPR (Biacore), ligand amine-coupled to chip, Fc fusion injected
T1 sequence (looked up): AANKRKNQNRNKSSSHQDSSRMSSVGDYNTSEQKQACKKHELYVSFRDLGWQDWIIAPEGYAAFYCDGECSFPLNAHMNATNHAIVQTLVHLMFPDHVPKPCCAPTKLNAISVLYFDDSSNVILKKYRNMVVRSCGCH

BMP10 = target: T2, BMP10 (human, UniProt O95393 317-424); test: as above
T2 construct: also called hBMP-10; hBMP10
T2 sequence: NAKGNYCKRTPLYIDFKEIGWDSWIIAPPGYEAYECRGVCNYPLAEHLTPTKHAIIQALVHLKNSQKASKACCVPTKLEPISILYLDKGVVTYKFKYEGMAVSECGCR

BMP9 = target: T3, BMP9 (human, UniProt Q9UK05 320-429); test: SPR (Biacore), ligand amine-coupled to chip, Fc fusion injected; the hFc form had only transient affinity for BMP9
T3 construct: also called hBMP-9; hBMP9
T3 sequence (looked up): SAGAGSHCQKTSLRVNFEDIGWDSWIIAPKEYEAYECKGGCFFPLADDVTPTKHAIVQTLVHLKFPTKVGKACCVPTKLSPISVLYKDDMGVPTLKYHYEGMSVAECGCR
Source text: Ligands were immobilized on a Biacore™ CMS chip using standard amine-coupling procedure.

binding result (BMP5): no binding | binding result (BMP10): binds | binding result (BMP9): binds
B1: ActRIIB(L79D 25-131)-mFc (Fc fusion)
chain: ETRECIYYNANWELERTNQSGLERCEGEQDKRLHCYASWRNSSGTIELVKKGCWDDDFNCYDRQECVATEENPQVYFCCCEGNFCNERFTHLPEAGGPEVTYEPPPT
notes: not shown: linker and mouse Fc domain
